Results from patent US20260242735A1 (UNIVERSIT T BASEL, published 2026).
Blank lines part the entries; values can stand above or below the binder they belong to.

What was measured:
[1] = target: CD33 variant N20H (recombinant, biotinylated) (human, UniProt P20138 21-259, biotinylated with EZ-Link Sulfo-NHS-LC-Biotin (sites not given)); experiment: BLI (Octet R8), avidity format: biotinylated CD33 on streptavidin sensor, Refmab #4 as analyte at 500 nM;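 further: analyte association recorded over 300 s, followed by a 900 s dissociation phase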
[2] = target: CD33 variant F21V (recombinant, biotinylated) (human, UniProt P20138 22-259, biotinylated with EZ-Link Sulfo-NHS-LC-Biotin (sites not given)); experiment: as above
[3] = target: CD33 variant F21H (recombinant, biotinylated) (human, UniProt P20138 22-259, biotinylated with EZ-Link Sulfo-NHS-LC-Biotin (sites not given)); experiment: as above
[4] = target: CD33 variant N20K (recombinant, biotinylated) (human, UniProt P20138 21-259, biotinylated with EZ-Link Sulfo-NHS-LC-Biotin (sites not given)); experiment: as above
[5] = target: CD33 variant N20V (recombinant, biotinylated) (human, UniProt P20138 21-259, biotinylated with EZ-Link Sulfo-NHS-LC-Biotin (sites not given)); experiment: as above
[6] = target: CD33 variant F21N (recombinant, biotinylated) (human, UniProt P20138 22-259, biotinylated with EZ-Link Sulfo-NHS-LC-Biotin (sites not given)); experiment: as above
[7] = target: CD33 variant Y50K (recombinant, biotinylated) (human, UniProt P20138 18-259, biotinylated with EZ-Link Sulfo-NHS-LC-Biotin (sites not given)); experiment: as above
[8] = target: CD33 variant F44P (recombinant, biotinylated) (human, UniProt P20138 18-259, biotinylated with EZ-Link Sulfo-NHS-LC-Biotin (sites not given)); experiment: as above
[9] = target: CD33 variant W22T (recombinant, biotinylated) (human, UniProt P20138 18-259, biotinylated with EZ-Link Sulfo-NHS-LC-Biotin (sites not given)); experiment: as above
[10] = target: CD33 variant W22R (recombinant, biotinylated) (human, UniProt P20138 18-259, biotinylated with EZ-Link Sulfo-NHS-LC-Biotin (sites not given)); experiment: as above
[11] = target: CD33 variant F21Q (recombinant, biotinylated) (human, UniProt P20138 22-259, biotinylated with EZ-Link Sulfo-NHS-LC-Biotin (sites not given)); experiment: as above
[12] = target: CD33 variant F21L (recombinant, biotinylated) (human, UniProt P20138 22-259, biotinylated with EZ-Link Sulfo-NHS-LC-Biotin (sites not given)); experiment: as above
[13] = target: CD33 double variant Y50H_H49H (recombinant, biotinylated) (human, UniProt P20138 18-259, biotinylated with EZ-Link Sulfo-NHS-LC-Biotin (sites not given)); experiment: as above
[14] = target: CD33 variant F21M (recombinant, biotinylated) (human, UniProt P20138 22-259, biotinylated with EZ-Link Sulfo-NHS-LC-Biotin (sites not given)); experiment: as above
[15] = target: CD33 variant W22D (recombinant, biotinylated) (human, UniProt P20138 18-259, biotinylated with EZ-Link Sulfo-NHS-LC-Biotin (sites not given)); experiment: as above
[16] = target: CD33 variant N20E (recombinant, biotinylated) (human, UniProt P20138 21-259, biotinylated with EZ-Link Sulfo-NHS-LC-Biotin (sites not given)); experiment: as above
[17] = target: CD33 variant W22K (recombinant, biotinylated) (human, UniProt P20138 18-259, biotinylated with EZ-Link Sulfo-NHS-LC-Biotin (sites not given)); experiment: as above
[18] = target: CD33 variant Y50R (recombinant, biotinylated) (human, UniProt P20138 18-259, biotinylated with EZ-Link Sulfo-NHS-LC-Biotin (sites not given)); experiment: as above
[19] = target: T1, CD33 wild type (recombinant, biotinylated) (human, UniProt P20138 18-259, biotinylated with EZ-Link Sulfo-NHS-LC-Biotin (sites not given)); experiment: as above
T1 construct: also called WT; CD33 wt

[20] = target: CD33 variant F21S (recombinant, biotinylated) (human, UniProt P20138 22-259, biotinylated with EZ-Link Sulfo-NHS-LC-Biotin (sites not given)); experiment: as above
[21] = target: CD33 variant W22E (recombinant, biotinylated) (human, UniProt P20138 18-259, biotinylated with EZ-Link Sulfo-NHS-LC-Biotin (sites not given)); experiment: as above
[22] = target: CD33 variant Y50D (recombinant, biotinylated) (human, UniProt P20138 18-259, biotinylated with EZ-Link Sulfo-NHS-LC-Biotin (sites not given)); experiment: as above
[23] = target: CD33 variant N20G (recombinant, biotinylated) (human, UniProt P20138 21-259, biotinylated with EZ-Link Sulfo-NHS-LC-Biotin (sites not given)); experiment: as above
[24] = target: CD33 variant F21I (recombinant, biotinylated) (human, UniProt P20138 22-259, biotinylated with EZ-Link Sulfo-NHS-LC-Biotin (sites not given)); experiment: as above
[25] = target: T2, CD33 variant W22R on base-edited human CD34+ HSPCs (human, UniProt P20138 18-364); experiment: flow cytometry sorting and NGS of sgRNA-E base-edited human CD34+ HSPCs
T2 construct: also called sgRNA-E edited CD33

human wild-type CD33 = target: T3, human wild-type CD33 (human, UniProt P20138 18-364); experiment: flow cytometry, IgG at 0.25 ug/ml on HEK293-T cells expressing CD33 against vector alone
T3 construct: also called SIGLEC3; P67

CD33 variant N20G (recombinant, biotinylated), sequence (P20138 other isoform, or with tags, fused parts or gaps N20G N20G): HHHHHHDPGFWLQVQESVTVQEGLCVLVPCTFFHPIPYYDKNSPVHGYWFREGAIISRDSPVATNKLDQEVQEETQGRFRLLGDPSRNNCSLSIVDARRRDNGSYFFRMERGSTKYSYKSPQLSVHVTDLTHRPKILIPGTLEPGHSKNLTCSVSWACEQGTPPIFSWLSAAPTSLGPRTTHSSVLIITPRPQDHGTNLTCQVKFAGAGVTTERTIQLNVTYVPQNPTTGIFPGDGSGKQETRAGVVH
CD33 variant Y50R (recombinant, biotinylated), sequence (P20138 other isoform, or with tags, fused parts or gaps Y50R Y50R): as the sequence (P20138 other isoform, or with tags, fused parts or gaps N20G N20G) above, with G9N, Y39R counted along it
CD33 variant N20K (recombinant, biotinylated), sequence (P20138 other isoform, or with tags, fused parts or gaps N20K N20K): as the sequence (P20138 other isoform, or with tags, fused parts or gaps N20G N20G) above, with G9K counted along it
CD33 variant N20H (recombinant, biotinylated), sequence (P20138 other isoform, or with tags, fused parts or gaps N20H N20H): as the sequence (P20138 other isoform, or with tags, fused parts or gaps N20G N20G) above, with G9H counted along it
CD33 variant N20E (recombinant, biotinylated), sequence (P20138 other isoform, or with tags, fused parts or gaps N20E N20E): as the sequence (P20138 other isoform, or with tags, fused parts or gaps N20G N20G) above, with G9E counted along it
CD33 variant F21I (recombinant, biotinylated), sequence (P20138 other isoform, or with tags, fused parts or gaps F21I F21I): as the sequence (P20138 other isoform, or with tags, fused parts or gaps N20G N20G) above, with G9N, F10I counted along it
CD33 variant W22D (recombinant, biotinylated), sequence (P20138 other isoform, or with tags, fused parts or gaps W22D W22D): as the sequence (P20138 other isoform, or with tags, fused parts or gaps N20G N20G) above, with G9N, W11D counted along it
CD33 variant W22K (recombinant, biotinylated), sequence (P20138 other isoform, or with tags, fused parts or gaps W22K W22K): as the sequence (P20138 other isoform, or with tags, fused parts or gaps N20G N20G) above, with G9N, W11K counted along it
CD33 variant Y50D (recombinant, biotinylated), sequence (P20138 other isoform, or with tags, fused parts or gaps Y50D Y50D): as the sequence (P20138 other isoform, or with tags, fused parts or gaps N20G N20G) above, with G9N, Y39D counted along it
CD33 variant F44P (recombinant, biotinylated), sequence (P20138 other isoform, or with tags, fused parts or gaps F44P F44P): as the sequence (P20138 other isoform, or with tags, fused parts or gaps N20G N20G) above, with G9N, F33P counted along it
CD33 variant F21L (recombinant, biotinylated), sequence (P20138 other isoform, or with tags, fused parts or gaps F21L F21L): as the sequence (P20138 other isoform, or with tags, fused parts or gaps N20G N20G) above, with G9N, F10L counted along it
T2 sequence (P20138 18-364 W22R limits assumed): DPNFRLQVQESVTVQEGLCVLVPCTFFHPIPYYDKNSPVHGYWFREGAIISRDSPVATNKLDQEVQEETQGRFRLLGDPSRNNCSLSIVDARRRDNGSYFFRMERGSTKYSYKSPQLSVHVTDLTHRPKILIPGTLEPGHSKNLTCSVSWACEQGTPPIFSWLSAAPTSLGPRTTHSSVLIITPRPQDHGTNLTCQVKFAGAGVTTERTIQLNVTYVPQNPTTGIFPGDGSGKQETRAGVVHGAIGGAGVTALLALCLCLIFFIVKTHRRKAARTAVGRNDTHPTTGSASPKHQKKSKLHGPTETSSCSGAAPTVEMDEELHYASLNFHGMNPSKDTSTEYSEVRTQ
CD33 variant F21H (recombinant, biotinylated), sequence (P20138 other isoform, or with tags, fused parts or gaps F21H F21H): as the sequence (P20138 other isoform, or with tags, fused parts or gaps N20G N20G) above, with G9N, F10H counted along it
CD33 variant W22T (recombinant, biotinylated), sequence (P20138 other isoform, or with tags, fused parts or gaps W22T W22T): as the sequence (P20138 other isoform, or with tags, fused parts or gaps N20G N20G) above, with G9N, W11T counted along it
CD33 variant F21M (recombinant, biotinylated), sequence (P20138 other isoform, or with tags, fused parts or gaps F21M F21M): as the sequence (P20138 other isoform, or with tags, fused parts or gaps N20G N20G) above, with G9N, F10M counted along it
CD33 variant N20V (recombinant, biotinylated), sequence (P20138 other isoform, or with tags, fused parts or gaps N20V N20V): as the sequence (P20138 other isoform, or with tags, fused parts or gaps N20G N20G) above, with G9V counted along it
CD33 variant F21N (recombinant, biotinylated), sequence (P20138 other isoform, or with tags, fused parts or gaps F21N F21N): as the sequence (P20138 other isoform, or with tags, fused parts or gaps N20G N20G) above, with G9N, F10N counted along it
CD33 variant W22E (recombinant, biotinylated), sequence (P20138 other isoform, or with tags, fused parts or gaps W22E W22E): as the sequence (P20138 other isoform, or with tags, fused parts or gaps N20G N20G) above, with G9N, W11E counted along it

% WT binding [1]: 87.7 % WT binding
% WT binding [2]: 96 % WT binding
% WT binding [3]: 103 % WT binding
% WT binding [4]: 79.4 % WT binding
% WT binding [5]: 99.5 % WT binding
% WT binding [6]: 108 % WT binding
% WT binding [7]: 0 % WT binding
% WT binding [8]: 73.9 % WT binding
% WT binding [9]: 100 % WT binding
% WT binding [10]: 87.2 % WT binding
% WT binding [11]: 122 % WT binding
% WT binding [12]: 88.3 % WT binding
% WT binding [13]: 0 % WT binding
% WT binding [14]: 122 % WT binding
% WT binding [15]: 129 % WT binding
% WT binding [16]: 111 % WT binding
% WT binding [17]: 99.3 % WT binding
% WT binding [18]: 0 % WT binding
% WT binding [19]: 100 % WT binding
% WT binding [20]: 106 % WT binding
% WT binding [21]: 136 % WT binding
% WT binding [22]: 0 % WT binding
% WT binding [23]: 89 % WT binding
% WT binding [24]: 91 % WT binding
B1: Refmab #4 (antibody, human IgG1, V domains shown)
VH: QVQLVQSGAEVKKPGESVKVSCKASGYTFTNYGMNWVKQAPGQGLEWMGWINTYTGEPTYADKFQGRVTMTTDTSTSTAYMEIRNLGGDDTAVYYCARWSWSDGYYVYFDYWGQGTSVTVSS
VL: DIVMTQSPDSLTVSLGERTTINCKSSQSVLDSSTNKNSLAWYQQKPGQPPKLLLSWASTRESGIPDRFSGSGSGTDFTLTIDSPQPEDSATYYCQQSAHFPITFGQGTRLEIK

binding result [25]: no binding
Signal:Background (human wild-type CD33): 35 signal:background ratio
B2: Refmab #3 (antibody, V domains shown)
VH: QVQLVQSGAEVKKPGSSVKVSCKASGYTFTDYNMHWVRQAPGQGLEWIGYIYPYNGGTGYNQKFKSKATITADESTNTAYMELSSLRSEDTAVYYCARGRPAMDYWGQGTLVTVSS
VL: DIQMTQSPSSLSASVGDRVTITCRASESVDNYGISFMNWFQQKPGKAPKLLIYAASNQGSGVPSRFSGSGSGTDFTLTISSLQPDDFATYYCQQSKEVPWTFGQGTKVEIK
notes: Full-length MAb format, human IgG1 Fc silent (PG-LALA)
